Reference: the supplement of paper PMC9112550, “Optimization of the antimicrobial peptide Bac7 by deep mutational scanning” (BMC Biology, 2022)

Test system: Escherichia coli TOP10
Test: shrunken log2 fold change of peptide-encoding DNA abundance (4.5 h post-induction vs induction); higher = less antimicrobial activity (less host growth inhibition)
Settings: time post-induction: 4.5 h; library: site-saturation at positions 5, 18, 19, 20
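Further: peptides expressed intracellularly from a pBAD plasmid library in pooled LB shake-flask culture, induced with 0.3% L-arabinose, DNA abundance read by NGS, three biological replicates, DESeq2 with apeglm shrinkage.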

| Sequence | shrunken log2 fold change |
| --- | --- |
| RRIRYRPPRLPRPRPRPESVPRP | -0.316 |
| RRIRMRPPRLPRPRPRPFHQPRP | -0.0752 |
| RRIRARPPRLPRPRPRPQTWPRP | 0.279 |
| RRIRKRPPRLPRPRPRPWSYPRP | -0.528 |
| RRIRHRPPRLPRPRPRPCGVPRP | -0.00991 |
| RRIRWRPPRLPRPRPRPHHYPRP | -0.952 |
| RRIRYRPPRLPRPRPRPVGGPRP | -0.179 |
| RRIRGRPPRLPRPRPRPHDDPRP | 0.0376 |
| RRIRIRPPRLPRPRPRPFMAPRP | -0.397 |
| RRIRWRPPRLPRPRPRPDWAPRP | -0.107 |
| RRIRMRPPRLPRPRPRPSVTPRP | 0.703 |
| RRIRIRPPRLPRPRPRPNGTPRP | -0.201 |
| RRIRMRPPRLPRPRPRPRCHPRP | 0.133 |
| RRIRMRPPRLPRPRPRPWYDPRP | 0.0249 |
| RRIRVRPPRLPRPRPRPVSCPRP | 0.182 |
| RRIRKRPPRLPRPRPRPMGAPRP | 0.414 |
| RRIRIRPPRLPRPRPRPIPMPRP | -0.705 |
| RRIRHRPPRLPRPRPRPYDPPRP | -0.00884 |
| RRIRIRPPRLPRPRPRPQMIPRP | -0.241 |
| RRIRHRPPRLPRPRPRPIIPPRP | -0.197 |
| RRIRIRPPRLPRPRPRPTHKPRP | 0.201 |
| RRIRERPPRLPRPRPRPCMPPRP | 0.0888 |
| RRIRLRPPRLPRPRPRPRHWPRP | 0.679 |
| RRIRDRPPRLPRPRPRPYILPRP | -0.592 |
| RRIRGRPPRLPRPRPRPFTMPRP | -0.278 |

| Sequence | shrunken log2 fold change |
| --- | --- |
| RRIRARPPRLPRPRPRPCQKPRP | 0.431 |
| RRIRERPPRLPRPRPRPRQCPRP | 0.123 |
| RRIRIRPPRLPRPRPRPPYYPRP | -0.827 |
| RRIRQRPPRLPRPRPRPPDMPRP | -0.14 |
| RRIRERPPRLPRPRPRPECCPRP | 0.066 |
| RRIRMRPPRLPRPRPRPCWDPRP | 0.439 |
| RRIRKRPPRLPRPRPRPFEHPRP | -0.0326 |
| RRIRVRPPRLPRPRPRPMKVPRP | -0.194 |
| RRIRQRPPRLPRPRPRPEDVPRP | -0.0612 |
| RRIRIRPPRLPRPRPRPEGHPRP | -0.00139 |
| RRIRIRPPRLPRPRPRPFMQPRP | -0.91 |
| RRIRARPPRLPRPRPRPKMDPRP | 0.384 |
| RRIRERPPRLPRPRPRPKANPRP | 0.0174 |
| RRIRRRPPRLPRPRPRPWFQPRP | -0.0671 |
| RRIRRRPPRLPRPRPRPGTQPRP | 0.0536 |
| RRIRWRPPRLPRPRPRPYDTPRP | -0.495 |
| RRIRIRPPRLPRPRPRPRGKPRP | 0.086 |
| RRIRCRPPRLPRPRPRPHQHPRP | -0.302 |
| RRIRYRPPRLPRPRPRPFFTPRP | -0.675 |
| RRIRARPPRLPRPRPRPSSVPRP | -0.0486 |
| RRIRGRPPRLPRPRPRPRLCPRP | 1.19 |
| RRIRLRPPRLPRPRPRPDDLPRP | -0.0581 |
| RRIRIRPPRLPRPRPRPCGQPRP | -0.279 |
| RRIRHRPPRLPRPRPRPKEHPRP | 0.0812 |
| RRIRPRPPRLPRPRPRPFNEPRP | -0.347 |

| Sequence | shrunken log2 fold change |
| --- | --- |
| RRIRLRPPRLPRPRPRPGAHPRP | 0.057 |
| RRIRTRPPRLPRPRPRPCHGPRP | -0.0399 |
| RRIRQRPPRLPRPRPRPLKMPRP | -0.269 |
| RRIRIRPPRLPRPRPRPSWCPRP | -0.532 |
| RRIRSRPPRLPRPRPRPERYPRP | -0.037 |
| RRIRCRPPRLPRPRPRPGCFPRP | 0.0804 |
| RRIRTRPPRLPRPRPRPSWKPRP | -0.124 |
| RRIRPRPPRLPRPRPRPLYYPRP | -0.985 |
| RRIRIRPPRLPRPRPRPTQRPRP | 0.187 |
| RRIRERPPRLPRPRPRPLCCPRP | -0.191 |
| RRIRERPPRLPRPRPRPDIKPRP | -0.248 |
| RRIRGRPPRLPRPRPRPRSMPRP | 0.666 |
| RRIRLRPPRLPRPRPRPYHTPRP | -0.484 |
| RRIRSRPPRLPRPRPRPFEMPRP | -0.353 |
| RRIRYRPPRLPRPRPRPSVSPRP | -0.747 |
| RRIRMRPPRLPRPRPRPTKWPRP | 0.445 |
| RRIRKRPPRLPRPRPRPKKCPRP | 0.405 |
| RRIRNRPPRLPRPRPRPPHPPRP | 0.292 |
| RRIRVRPPRLPRPRPRPVMDPRP | -0.324 |
| RRIRTRPPRLPRPRPRPHIEPRP | -0.0284 |
| RRIRMRPPRLPRPRPRPIDAPRP | 0.616 |
| RRIRYRPPRLPRPRPRPWWCPRP | -0.139 |
| RRIRGRPPRLPRPRPRPRALPRP | 0.852 |
| RRIRKRPPRLPRPRPRPLELPRP | 0.134 |
| RRIRHRPPRLPRPRPRPPFWPRP | 0.0835 |

| Sequence | shrunken log2 fold change |
| --- | --- |
| RRIRGRPPRLPRPRPRPRDFPRP | 0.619 |
| RRIRMRPPRLPRPRPRPCSHPRP | -0.167 |
| RRIRERPPRLPRPRPRPIVHPRP | -0.355 |
| RRIRTRPPRLPRPRPRPGGYPRP | -0.0912 |
| RRIRDRPPRLPRPRPRPFFFPRP | 0.483 |
| RRIRMRPPRLPRPRPRPMLTPRP | 2.52 |
| RRIRERPPRLPRPRPRPWTHPRP | -0.0081 |
| RRIRGRPPRLPRPRPRPRSPPRP | 0.449 |
| RRIRMRPPRLPRPRPRPFEVPRP | -0.0748 |
| RRIRGRPPRLPRPRPRPYLFPRP | -0.0066 |
| RRIRSRPPRLPRPRPRPCKRPRP | -0.326 |
| RRIRGRPPRLPRPRPRPFDRPRP | 0.0386 |
| RRIRRRPPRLPRPRPRPMIYPRP | -0.305 |
| RRIRYRPPRLPRPRPRPYCHPRP | -0.435 |
| RRIRVRPPRLPRPRPRPPWHPRP | 0.164 |
| RRIRRRPPRLPRPRPRPWLDPRP | -0.0721 |
| RRIRARPPRLPRPRPRPQEHPRP | 0.515 |
| RRIRYRPPRLPRPRPRPKTEPRP | -0.00177 |
| RRIRIRPPRLPRPRPRPCEDPRP | -0.424 |
| RRIRHRPPRLPRPRPRPGHRPRP | -0.0928 |
| RRIRYRPPRLPRPRPRPYVIPRP | -1.19 |
| RRIRGRPPRLPRPRPRPVVGPRP | 0.735 |
| RRIRNRPPRLPRPRPRPCIGPRP | 0.00845 |
| RRIRARPPRLPRPRPRPNKHPRP | -0.171 |
| RRIRARPPRLPRPRPRPLMWPRP | 0.481 |

| Sequence | shrunken log2 fold change |
| --- | --- |
| RRIRPRPPRLPRPRPRPHVRPRP | 0.036 |
| RRIRGRPPRLPRPRPRPFGCPRP | -0.0567 |
| RRIRARPPRLPRPRPRPNPQPRP | 0.002 |
| RRIRRRPPRLPRPRPRPHDQPRP | 0.0964 |
| RRIRIRPPRLPRPRPRPVVIPRP | -0.307 |
| RRIRPRPPRLPRPRPRPVPWPRP | 0.548 |
| RRIRRRPPRLPRPRPRPVTNPRP | 0.266 |
| RRIRCRPPRLPRPRPRPQGPPRP | 0.353 |
| RRIRYRPPRLPRPRPRPHTRPRP | -0.494 |
| RRIRPRPPRLPRPRPRPFNWPRP | -0.118 |
| RRIRCRPPRLPRPRPRPSLEPRP | -0.136 |
| RRIRYRPPRLPRPRPRPYSMPRP | -0.0134 |
| RRIRYRPPRLPRPRPRPQHKPRP | -0.547 |
| RRIRDRPPRLPRPRPRPFAGPRP | 0.0426 |
| RRIRRRPPRLPRPRPRPYIAPRP | -0.54 |
| RRIRVRPPRLPRPRPRPAYGPRP | -0.473 |
| RRIRHRPPRLPRPRPRPRHNPRP | -0.4 |
| RRIRCRPPRLPRPRPRPRIWPRP | 0.0951 |
| RRIRIRPPRLPRPRPRPDAWPRP | 0.32 |
| RRIRNRPPRLPRPRPRPPCEPRP | 0.0665 |
| RRIRIRPPRLPRPRPRPNWMPRP | -0.341 |
| RRIRHRPPRLPRPRPRPQKEPRP | -0.03 |
| RRIRCRPPRLPRPRPRPGACPRP | 0.257 |
| RRIRWRPPRLPRPRPRPVLPPRP | -0.0604 |
| RRIRWRPPRLPRPRPRPNSIPRP | -0.396 |
